Reference: US20110059889A1 (SYNTONIX PHARMACEUTICALS, published 2011)
Like-named read-outs stand apart in the source and are kept apart here. Bridge positions count the residues as written; N and C are the ends. Square brackets hold non-standard residues; d marks the D form. Ends that are not written are not given here. Phe(4-amidino) = N=C(N)c1ccc(C[C@H](N)C(=O)O)cc1; Phe(4-NH2) = Nc1ccc(C[C@H](N)C(=O)O)cc1; His(Me) = mono-methylated histidine; NMeL = CN[C@@H](CC(C)C)C(=O)O; Pen = CC(C)(S)[C@H](N)C(=O)O; Sar = CNCC(=O)O

What was measured:
[1] = target: T1, soluble human FcRn (shFcRn) (human, UniProt P55899 24-297; P61769 21-119); assay: SPR pH 6
T1 construct: Biotinylated for the ELISA, amine-coupled to a CM5 chip for SPR; also called biotinylated shFcRn
T1 sequence (P55899 24-297 limits assumed, chain 1 of 2): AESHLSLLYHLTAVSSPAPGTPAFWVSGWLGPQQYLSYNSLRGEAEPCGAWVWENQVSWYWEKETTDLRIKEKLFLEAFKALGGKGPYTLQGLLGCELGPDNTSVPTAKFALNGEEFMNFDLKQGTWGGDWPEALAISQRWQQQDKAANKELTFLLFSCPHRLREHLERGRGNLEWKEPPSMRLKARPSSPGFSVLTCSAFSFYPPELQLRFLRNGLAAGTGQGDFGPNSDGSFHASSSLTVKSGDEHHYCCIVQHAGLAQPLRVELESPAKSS
T1 sequence (P61769 21-119 limits assumed, chain 2 of 2): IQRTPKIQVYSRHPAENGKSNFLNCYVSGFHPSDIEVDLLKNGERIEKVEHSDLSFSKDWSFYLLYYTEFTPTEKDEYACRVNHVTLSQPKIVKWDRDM
Method: (§1) The following steps were performed to cross-link soluble human or cynomolgus FcRn to the dextran surface of a CM5 sensor chip (Biacore AB, Uppsala, Sweden) by an amine coupling reaction involving 1-ethyl-(3-dimethylaminopropyl)-carbodiimide hydrochloride (EDC) (Biacore AB, Uppsala, Sweden) and N-hydroxysuccinimide (NHS) (Biacore AB, Uppsala, Sweden) as recommended by Biacore (BIAapplications Handbook, version AB, section 4.2, Biacore AB, Uppsala, Sweden). […] Residual sites on the FcRn flow cell were blocked with 1 M ethanolamine hydrochloride pH 8.5 (Biacore AB, Uppsala, Sweden). A control flow cell was blocked with ethanolamine for reference subtraction. For analysis of the monomeric peptides, FcRn was coated to a final density of 4000-5000 response units (RU). For analysis of the peptide dimers, FcRn was coated to a density of 2000-2500 RU. All SPR measurements were performed using a BIACORE 3000 Instrument (Biacore AB Uppsala, Sweden). For measurements done at either pH 6 or pH 7.4, experiments were performed in 50 mM phosphate, 100 mM sodium chloride, 0.01% surfactant P20 (Biacore AB, Uppsala, Sweden).
(§2) Ten, 2-fold dilutions of the peptide were injected over the FcRn-CM5 chip at a rate of 20 μl/min for 2 min. The peptide was dissociated from the chip for 2.5 minutes with buffer. Any remaining peptide was removed from the chip with a 30 second injection of HBS-P buffer (Biacore AB, Uppsala, Sweden) at a rate of 30 μl/min. Sensorgrams were generated and analyzed using BiaEval software version 3.1 (Biacore AB, Uppsala, Sweden). The equilibrium RU observed for each injection was plotted against concentration. The equilibrium KD values were derived by analysis of the plots using the steady state affinity model included in the BiaEval software.

[2] = target: T1, soluble human FcRn (shFcRn); assay: IgG competition ELISA
Method: (§3) The wells were coated with 100 μl/well of 1 μg/ml biotinylated-shFcRn in Buffer A. The plate was sealed and incubated at 37° C. for 2 hours. Afterwards, the plate was washed with 200 μl/well of Buffer B (Buffer B: 100 mM MES pH 6, 150 mM NaCl, 0.5% BSA IgG-free (Jackson ImmunoResearch, West Grove, Pa.), 0.05% Tween-20). […] To allow for mixing, the plate was rocked for 2 minutes, sealed and incubated at 37° C. for 2 hours. […] The plate was covered, incubated for 30 minutes at room temperature and washed 4 times with 200 μl/well of ice-cold buffer B. SureBlue TMB substrate solution (100 μl/well, KPL, Gaithersburg, Md.) was added and the plate was allowed to incubate at room temperature until color developed, which took 5 to 10 minutes. Once color developed, 100 μl/well of TMB stop solution (KPL, Gaithersburg, Md.) was added and the absorbance was measured at 450 nm. The data was plotted as absorbance vs. peptide concentration to derive the inhibitory concentration 50% (IC₅₀) values.

[3] = target: T1, soluble human FcRn (shFcRn); assay: IgG competition ELISA; remark: listed apart in the source
Method: as §3

[4] = target: T1, soluble human FcRn (shFcRn); assay: SPR pH 6; remark: listed apart in the source
Method: as §1, §2

[5] = target: T1, soluble human FcRn (shFcRn); assay: SPR pH 6; remark: listed apart in the source
Method: as §1, §2

[6] = target: T1, soluble human FcRn (shFcRn); assay: SPR pH 6; remark: listed apart in the source
Method: as §1, §2

[7] = target: T1, soluble human FcRn (shFcRn); assay: SPR pH 7.4
Method: as §1, §2

[8] = target: T1, soluble human FcRn (shFcRn); assay: IgG competition ELISA; remark: listed apart in the source
Method: as §3

[9] = target: T1, soluble human FcRn (shFcRn); assay: IgG competition ELISA; remark: listed apart in the source
Method: as §3

[10] = target: T1, soluble human FcRn (shFcRn); assay: IgG competition ELISA; remark: listed apart in the source

| Binder | Kd [5] | Kd [6] | Kd [7] | IC50 [8] | further results |
| --- | --- | --- | --- | --- | --- |
| QRF[Pen]TGHFGGIYPCNGP-NH2 (disulfide 4-14; N-terminus assumed; SMILES CC[C@H](C)[C@@H]1NC(=O)CNC(=O)CNC(=O)[C@H](Cc2ccccc2)NC(=O)[C@H](Cc2c[nH]cn2)NC(=O)CNC(=O)[C@H]([C@@H](C)O)NC(=O)[C@@H](NC(=O)[C@H](Cc2ccccc2)NC(=O)[C@H](CCCNC(=N)N)NC(=O)[C@@H](N)CCC(N)=O)C(C)(C)SSC[C@@H](C(=O)N[C@@H](CC(N)=O)C(=O)NCC(=O)N2CCC[C@H]2C(N)=O)NC(=O)[C@@H]2CCCN2C(=O)[C@H](Cc2ccc(O)cc2)NC1=O) [Peptide No. 101] | – | – | – | – | Kd [1]: 340 nM; IC50 [2]: 3400 nM |
| QRF[Pen]TGHFG[Sar]WYPCNGP-NH2 (disulfide 4-14; N-terminus assumed; SMILES C[C@@H](O)[C@@H]1NC(=O)[C@@H](NC(=O)[C@H](Cc2ccccc2)NC(=O)[C@H](CCCNC(=N)N)NC(=O)[C@@H](N)CCC(N)=O)C(C)(C)SSC[C@@H](C(=O)N[C@@H](CC(N)=O)C(=O)NCC(=O)N2CCC[C@H]2C(N)=O)NC(=O)[C@@H]2CCCN2C(=O)[C@H](Cc2ccc(O)cc2)NC(=O)[C@H](Cc2c[nH]c3ccccc23)NC(=O)CN(C)C(=O)CNC(=O)[C@H](Cc2ccccc2)NC(=O)[C@H](Cc2c[nH]cn2)NC(=O)CNC1=O) [Peptide No. 238] | – | – | – | – | IC50 [2]: 1000 nM |
| QRF[Pen]TGHFG[Sar]LYPCNGP-NH2 (disulfide 4-14; N-terminus assumed; SMILES CC(C)C[C@@H]1NC(=O)CN(C)C(=O)CNC(=O)[C@H](Cc2ccccc2)NC(=O)[C@H](Cc2c[nH]cn2)NC(=O)CNC(=O)[C@H]([C@@H](C)O)NC(=O)[C@@H](NC(=O)[C@H](Cc2ccccc2)NC(=O)[C@H](CCCNC(=N)N)NC(=O)[C@@H](N)CCC(N)=O)C(C)(C)SSC[C@@H](C(=O)N[C@@H](CC(N)=O)C(=O)NCC(=O)N2CCC[C@H]2C(N)=O)NC(=O)[C@@H]2CCCN2C(=O)[C@H](Cc2ccc(O)cc2)NC1=O) [Peptide No. 112] | – | – | – | – | IC50 [3]: 900 nM |
| RF[Pen]TGHFG[Sar][NMeL]YPC-NH2 (disulfide 3-13; N-terminus assumed; SMILES CC(C)C[C@H]1C(=O)N[C@@H](Cc2ccc(O)cc2)C(=O)N2CCC[C@H]2C(=O)N[C@H](C(N)=O)CSSC(C)(C)[C@H](NC(=O)[C@H](Cc2ccccc2)NC(=O)[C@@H](N)CCCNC(=N)N)C(=O)N[C@@H]([C@@H](C)O)C(=O)NCC(=O)N[C@@H](Cc2c[nH]cn2)C(=O)N[C@@H](Cc2ccccc2)C(=O)NCC(=O)N(C)CC(=O)N1C) [Peptide No. 235] | 31 nM | – | – | – | Kd [4]: 31 nM |
| RF[Pen]TGKFG[Sar][NMeL]YPC-NH2 (disulfide 3-13; N-terminus assumed; SMILES CC(C)C[C@H]1C(=O)N[C@@H](Cc2ccc(O)cc2)C(=O)N2CCC[C@H]2C(=O)N[C@H](C(N)=O)CSSC(C)(C)[C@H](NC(=O)[C@H](Cc2ccccc2)NC(=O)[C@@H](N)CCCNC(=N)N)C(=O)N[C@@H]([C@@H](C)O)C(=O)NCC(=O)N[C@@H](CCCCN)C(=O)N[C@@H](Cc2ccccc2)C(=O)NCC(=O)N(C)CC(=O)N1C) [Peptide No. 255] | – | 1300 nM | 1100 nM | 40000 nM | – |
| RF[Pen]TGRFG[Sar][NMeL]YPC-NH2 (disulfide 3-13; N-terminus assumed; SMILES CC(C)C[C@H]1C(=O)N[C@@H](Cc2ccc(O)cc2)C(=O)N2CCC[C@H]2C(=O)N[C@H](C(N)=O)CSSC(C)(C)[C@H](NC(=O)[C@H](Cc2ccccc2)NC(=O)[C@@H](N)CCCNC(=N)N)C(=O)N[C@@H]([C@@H](C)O)C(=O)NCC(=O)N[C@@H](CCCNC(=N)N)C(=O)N[C@@H](Cc2ccccc2)C(=O)NCC(=O)N(C)CC(=O)N1C) [Peptide No. 256] | – | 500 nM | 500 nM | 5500 nM | – |
| RF[Pen]TGHF[dS][Sar][NMeL]YPC-NH2 (disulfide 3-13; N-terminus assumed; SMILES CC(C)C[C@H]1C(=O)N[C@@H](Cc2ccc(O)cc2)C(=O)N2CCC[C@H]2C(=O)N[C@H](C(N)=O)CSSC(C)(C)[C@H](NC(=O)[C@H](Cc2ccccc2)NC(=O)[C@@H](N)CCCNC(=N)N)C(=O)N[C@@H]([C@@H](C)O)C(=O)NCC(=O)N[C@@H](Cc2c[nH]cn2)C(=O)N[C@@H](Cc2ccccc2)C(=O)N[C@H](CO)C(=O)N(C)CC(=O)N1C) [Peptide No. 241] | 1100 nM | – | – | – | IC50 [9]: 23000 nM |
| RF[Pen]TG[Phe(4-amidino)]FG[Sar][NMeL]YPC-NH2 (disulfide 3-13; N-terminus assumed; SMILES CC(C)C[C@H]1C(=O)N[C@@H](Cc2ccc(O)cc2)C(=O)N2CCC[C@H]2C(=O)N[C@H](C(N)=O)CSSC(C)(C)[C@H](NC(=O)[C@H](Cc2ccccc2)NC(=O)[C@@H](N)CCCNC(=N)N)C(=O)N[C@@H]([C@@H](C)O)C(=O)NCC(=O)N[C@@H](Cc2ccc(C(=N)N)cc2)C(=O)N[C@@H](Cc2ccccc2)C(=O)NCC(=O)N(C)CC(=O)N1C) [Peptide No. 257] | – | 74 nM | 73 nM | – | – |
| RF[Pen]TG[Phe(4-NH2)]FG[Sar][NMeL]YPC-NH2 (disulfide 3-13; N-terminus assumed; SMILES CC(C)C[C@H]1C(=O)N[C@@H](Cc2ccc(O)cc2)C(=O)N2CCC[C@H]2C(=O)N[C@H](C(N)=O)CSSC(C)(C)[C@H](NC(=O)[C@H](Cc2ccccc2)NC(=O)[C@@H](N)CCCNC(=N)N)C(=O)N[C@@H]([C@@H](C)O)C(=O)NCC(=O)N[C@@H](Cc2ccc(N)cc2)C(=O)N[C@@H](Cc2ccccc2)C(=O)NCC(=O)N(C)CC(=O)N1C) [Peptide No. 258] | – | – | 1100 nM | 4600 nM | – |
| RF[Pen]TGHF[dE][Sar][NMeL]YPC-NH2 (disulfide 3-13; N-terminus assumed; SMILES CC(C)C[C@H]1C(=O)N[C@@H](Cc2ccc(O)cc2)C(=O)N2CCC[C@H]2C(=O)N[C@H](C(N)=O)CSSC(C)(C)[C@H](NC(=O)[C@H](Cc2ccccc2)NC(=O)[C@@H](N)CCCNC(=N)N)C(=O)N[C@@H]([C@@H](C)O)C(=O)NCC(=O)N[C@@H](Cc2c[nH]cn2)C(=O)N[C@@H](Cc2ccccc2)C(=O)N[C@H](CCC(=O)O)C(=O)N(C)CC(=O)N1C) [Peptide No. 244] | 580 nM | – | – | – | IC50 [9]: 6400 nM |
| RF[Pen]TGHF[dT][Sar][NMeL]YPC-NH2 (disulfide 3-13; N-terminus assumed; SMILES CC(C)C[C@H]1C(=O)N[C@@H](Cc2ccc(O)cc2)C(=O)N2CCC[C@H]2C(=O)N[C@H](C(N)=O)CSSC(C)(C)[C@H](NC(=O)[C@H](Cc2ccccc2)NC(=O)[C@@H](N)CCCNC(=N)N)C(=O)N[C@@H]([C@@H](C)O)C(=O)NCC(=O)N[C@@H](Cc2c[nH]cn2)C(=O)N[C@@H](Cc2ccccc2)C(=O)N[C@H]([C@H](C)O)C(=O)N(C)CC(=O)N1C) [Peptide No. 240] | 4800 nM | – | – | – | IC50 [9]: 71000 nM |
| RF[Pen]TGHF[dN][Sar][NMeL]YPC-NH2 (disulfide 3-13; N-terminus assumed; SMILES CC(C)C[C@H]1C(=O)N[C@@H](Cc2ccc(O)cc2)C(=O)N2CCC[C@H]2C(=O)N[C@H](C(N)=O)CSSC(C)(C)[C@H](NC(=O)[C@H](Cc2ccccc2)NC(=O)[C@@H](N)CCCNC(=N)N)C(=O)N[C@@H]([C@@H](C)O)C(=O)NCC(=O)N[C@@H](Cc2c[nH]cn2)C(=O)N[C@@H](Cc2ccccc2)C(=O)N[C@H](CC(N)=O)C(=O)N(C)CC(=O)N1C) [Peptide No. 243] | 2100 nM | – | – | – | IC50 [9]: 29000 nM |
| QRF[Pen]TGHF[Sar]GLYPCNGP-NH2 (disulfide 4-14; N-terminus assumed; SMILES CC(C)C[C@@H]1NC(=O)CNC(=O)CN(C)C(=O)[C@H](Cc2ccccc2)NC(=O)[C@H](Cc2c[nH]cn2)NC(=O)CNC(=O)[C@H]([C@@H](C)O)NC(=O)[C@@H](NC(=O)[C@H](Cc2ccccc2)NC(=O)[C@H](CCCNC(=N)N)NC(=O)[C@@H](N)CCC(N)=O)C(C)(C)SSC[C@@H](C(=O)N[C@@H](CC(N)=O)C(=O)NCC(=O)N2CCC[C@H]2C(N)=O)NC(=O)[C@@H]2CCCN2C(=O)[C@H](Cc2ccc(O)cc2)NC1=O) [Peptide No. 111] | – | – | – | – | Kd [4]: 2000 nM |
| QRFCTGHFGGLXPCNGP (Pen 4; 2-pyridylAla 12 (printed 2-pvridylAla); disulfide 4-14; C-terminal amide) [Peptide No. 66] | – | – | – | – | IC50 [10]: > 125000 nM |
| RF[Pen]TG[His(Me)]FGGLYPC-NH2 (disulfide 3-13) [Peptide No. 259] | – | 140 nM | 380 nM | 2900 nM | – |
| RF[Pen]TG[His(Me)2]FGGLYPC-NH2 (disulfide 3-13) [Peptide No. 260] | – | 190 nM | 460 nM | 4400 nM | – |
